Measured values as given in paper doi:10.1101/2025.03.28.645892, “Plant-specific adaptations of the CDC48 unfoldase” (bioRxiv, 2025).
One block for each binder: values may come before it.

Assays:
[1] = biological target: T1, Arabidopsis thaliana CDC48A (Arabidopsis thaliana, UniProt P54609 1-809); assay: ITC; AtCDC48A in the cell (30 µM; 10 µM for AtNPL4B UBXL), partner 200 µM in the syringe; 2 mM AMPPNP; 50 mM Bis-Tris pH 6.5, 100 mM NaCl, 1 mM TCEP, 2 mM MgCl2; 25°C; settings: both partners purified
T1 construct: Cell division cycle protein 48 A (AtCDC48A), Arabidopsis thaliana, locus AT3g09840; recombinant full-length protein; Homo-hexamer; ADP-saturated or nucleotide-free in some experiments (told by the assay); also called AtCDC48A; AtCDC48; not shown: GST, N-terminal, cleaved
T1 sequence (P54609 whole entry): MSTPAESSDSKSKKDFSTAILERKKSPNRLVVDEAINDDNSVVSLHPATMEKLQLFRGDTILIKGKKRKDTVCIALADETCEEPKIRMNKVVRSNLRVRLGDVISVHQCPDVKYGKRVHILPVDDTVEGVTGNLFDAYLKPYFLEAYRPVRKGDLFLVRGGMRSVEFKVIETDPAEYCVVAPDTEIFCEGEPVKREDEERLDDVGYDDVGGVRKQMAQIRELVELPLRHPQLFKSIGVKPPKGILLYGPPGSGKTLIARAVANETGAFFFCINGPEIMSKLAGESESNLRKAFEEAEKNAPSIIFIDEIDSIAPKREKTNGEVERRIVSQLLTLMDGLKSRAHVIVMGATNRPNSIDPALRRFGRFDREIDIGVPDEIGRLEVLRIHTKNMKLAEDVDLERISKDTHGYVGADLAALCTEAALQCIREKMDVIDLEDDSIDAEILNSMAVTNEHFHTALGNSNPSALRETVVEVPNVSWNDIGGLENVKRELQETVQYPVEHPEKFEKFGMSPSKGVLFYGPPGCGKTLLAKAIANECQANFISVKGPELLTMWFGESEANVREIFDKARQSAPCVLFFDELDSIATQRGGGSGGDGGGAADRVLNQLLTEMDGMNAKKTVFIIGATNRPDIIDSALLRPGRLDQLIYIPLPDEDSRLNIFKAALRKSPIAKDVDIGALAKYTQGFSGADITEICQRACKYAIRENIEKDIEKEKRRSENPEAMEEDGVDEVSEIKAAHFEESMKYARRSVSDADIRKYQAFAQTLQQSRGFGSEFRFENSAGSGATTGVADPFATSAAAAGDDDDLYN

[2] = biological target: T2, Arabidopsis thaliana NPL4 (Arabidopsis thaliana, UniProt O82264 1-413, Alexa-488 dye label in the MST experiments only); assay: MST; Alexa-488-labelled AtNPL4 (50 nM dye solution mixed 1:1), AtUFD1A or AtUFD1B titrated in 16 dilutions; pH 7.5 (50 mM Tris-HCl, 100 mM NaCl, 1 mM TCEP), Tween-20; settings: both partners purified
T2 construct: Nuclear protein localisation protein 4 (AtNPL4), Arabidopsis thaliana, locus AT2g47970; cDNA cloned into pGEX6P-1; also called AtNPL4; wild-type AtNPL4; not shown: GST, N-terminal, cleaved
T2 sequence: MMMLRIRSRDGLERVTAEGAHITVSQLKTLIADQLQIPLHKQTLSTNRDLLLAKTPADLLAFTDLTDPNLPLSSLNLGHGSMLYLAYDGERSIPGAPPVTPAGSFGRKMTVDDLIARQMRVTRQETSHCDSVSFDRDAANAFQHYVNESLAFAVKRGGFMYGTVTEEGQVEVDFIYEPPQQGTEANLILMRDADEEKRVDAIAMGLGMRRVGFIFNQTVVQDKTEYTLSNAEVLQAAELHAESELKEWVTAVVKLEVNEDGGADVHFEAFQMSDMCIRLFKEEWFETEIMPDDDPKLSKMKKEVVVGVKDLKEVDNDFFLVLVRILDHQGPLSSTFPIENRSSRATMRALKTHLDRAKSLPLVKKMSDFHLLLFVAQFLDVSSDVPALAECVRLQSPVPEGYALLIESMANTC

binding result [1]: binds
B1: AtNPL4B F105A (natural protein, Arabidopsis thaliana, UniProt Q9LYC2 1-413, looked up)
chain: MTMLRVRSRDGLERVSVDGPHITVSQLKTLIQDQLQIPIHNQTLSTNRNLLLAKSPSDFLAFTDMADPNLRISSLNLAHGSMVYLAYEGERTIRGGPAVTPAGSAGRKMTVEDLIARQMRVGRQEKAHCDSVSFDRDCANAFQHFVNESLAFAVKRGGFMYGNVSEDGQVEVNFIYEPPQQGMEDNLILMRDSEEEKRVDAIALGLGMRRVGFIFNQTVTQDKKEYTLSNVEVLLAAQLHAESELKEWVTAVVKLEINEDGGADVHFEPFQMSDMCVRLFKEGWFETEIGPEDDPKLSKLKKEVVVGVKDVKEVDNDFFLVLVKILDHQGPLSCTFPIENRNTQTTMRALKTHMERARSLPFVKRISDFHLLLFVAQFLDVSSDVPALAECVRLQSHVPEGYELLIDSMANTS
notes: AtNPL4B, second NPL4 variant of Arabidopsis thaliana, locus AT3g63000 (84% identical to AtNPL4); ordered from Twist Biosciences in pGEX6P-1; The wild-type AtNPL4B was not measured; also called the F105 mutant; not shown: GST, N-terminal, cleaved

stoichiometry N [1]: 6 AtNPL4B_(UBXL) per hexamer
B2: AtNPL4B UBXL domain (domain or fragment, Arabidopsis thaliana, UniProt Q9LYC2 1-89, looked up)
chain: MTMLRVRSRDGLERVSVDGPHITVSQLKTLIQDQLQIPIHNQTLSTNRNLLLAKSPSDFLAFTDMADPNLRISSLNLAHGSMVYLAYEG
notes: UBX-like (UBXL) domain of AtNPL4B, Arabidopsis thaliana, locus AT3g63000, residues 1-89; also called the isolated UBXL domain; not shown: GST, N-terminal, cleaved

Kd [2]: > 200 µM
B3: Arabidopsis thaliana UFD1B (natural protein, UniProt Q9SJV0 1-340, looked up)
chain: MVLRFCCHLLTYSVSLLPPITMFFDGYHYHGTTFEQSYRCYPASFIDKPQLESGDKIIMPPSALDRLASLHIDYPMLFELRNAGIERVTHCGVLEFIAEEGMIYMPYWMMQNLLLQEGDIVRVRNVTLPKGTYVKLQPHTTDFLDISNPKAILETALRNYSCLTSGDSIMVPYNNKKYFIDIVETKPANAISIIETDCEVDFAPPLDYKEPERPTAPSAAKGPAKAEEVVDEPEPKFNPFTGSGRRLDGRPLAYEPAPASSSKGKQPVVANGNGQSSVASSSEKATRAQGKLVFGANGNRAPKEAAPKVGAAKETKKEEQEKKDEPKFQAFSGKKYSLRG
notes: Ubiquitin fusion degradation protein 1 paralogue B (AtUFD1B), Arabidopsis thaliana, locus AT2g21270; cDNA cloned into pGEX6P-1; also called AtUFD1B; AtUFD1; not shown: GST, N-terminal, cleaved
